Measurements as given in the supplement of paper PMC9112550, “Optimization of the antimicrobial peptide Bac7 by deep mutational scanning” (BMC Biology, 2022).

System: Escherichia coli TOP10
Test: shrunken log2 fold change of peptide-encoding DNA abundance (4.5 h post-induction vs induction); higher = less antimicrobial activity (less host growth inhibition)
Conditions: time post-induction: 4.5 h; library: site-saturation at positions 5, 18, 19, 20
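Further: peptides expressed intracellularly from a pBAD plasmid library in pooled LB shake-flask culture, induced with 0.3% L-arabinose, DNA abundance read by NGS, three biological replicates, DESeq2 with apeglm shrinkage.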

Row | Sequence | shrunken log2 fold change
1 | RRIRGRPPRLPRPRPRPWCVPRP | 0.121
2 | RRIRGRPPRLPRPRPRPWDDPRP | 0.137
3 | RRIRGRPPRLPRPRPRPWDEPRP | 0.0077
4 | RRIRGRPPRLPRPRPRPWFIPRP | -0.361
5 | RRIRGRPPRLPRPRPRPWFQPRP | 0.0619
6 | RRIRGRPPRLPRPRPRPWITPRP | -0.204
7 | RRIRGRPPRLPRPRPRPWIWPRP | 0.236
8 | RRIRGRPPRLPRPRPRPWLDPRP | 0.0661
9 | RRIRGRPPRLPRPRPRPWLLPRP | 0.216
10 | RRIRGRPPRLPRPRPRPWMWPRP | 0.218
11 | RRIRGRPPRLPRPRPRPWNYPRP | -0.0902
12 | RRIRGRPPRLPRPRPRPWPAPRP | 0.763
13 | RRIRGRPPRLPRPRPRPWPKPRP | 0.199
14 | RRIRGRPPRLPRPRPRPWQKPRP | 0.09
15 | RRIRGRPPRLPRPRPRPWQYPRP | -0.0381
16 | RRIRGRPPRLPRPRPRPWRCPRP | 0.0546
17 | RRIRGRPPRLPRPRPRPWRKPRP | 0.12
18 | RRIRGRPPRLPRPRPRPWRVPRP | 0.499
19 | RRIRGRPPRLPRPRPRPWSFPRP | -0.113
20 | RRIRGRPPRLPRPRPRPWSPPRP | 0.178
21 | RRIRGRPPRLPRPRPRPWSWPRP | 1.1
22 | RRIRGRPPRLPRPRPRPWTEPRP | 0.128

Row | Sequence | shrunken log2 fold change
23 | RRIRGRPPRLPRPRPRPWYHPRP | -0.347
24 | RRIRGRPPRLPRPRPRPYCCPRP | -0.0424
25 | RRIRGRPPRLPRPRPRPYDAPRP | -0.317
26 | RRIRGRPPRLPRPRPRPYEEPRP | 0.106
27 | RRIRGRPPRLPRPRPRPYEKPRP | -0.0149
28 | RRIRGRPPRLPRPRPRPYETPRP | 0.16
29 | RRIRGRPPRLPRPRPRPYFAPRP | 0.357
30 | RRIRGRPPRLPRPRPRPYIIPRP | -0.158
31 | RRIRGRPPRLPRPRPRPYKKPRP | -0.186
32 | RRIRGRPPRLPRPRPRPYKMPRP | -0.234
33 | RRIRGRPPRLPRPRPRPYKYPRP | -0.346
34 | RRIRGRPPRLPRPRPRPYLCPRP | 0.0395
35 | RRIRGRPPRLPRPRPRPYNAPRP | -0.332
36 | RRIRGRPPRLPRPRPRPYPGPRP | -0.0165
37 | RRIRGRPPRLPRPRPRPYPRPRP | 0.162
38 | RRIRGRPPRLPRPRPRPYQEPRP | 0.0063
39 | RRIRGRPPRLPRPRPRPYRRPRP | -0.00129
40 | RRIRGRPPRLPRPRPRPYRYPRP | 0.322
41 | RRIRGRPPRLPRPRPRPYSEPRP | -0.093
42 | RRIRGRPPRLPRPRPRPYSPPRP | -0.528
43 | RRIRGRPPRLPRPRPRPYSVPRP | 0.0284
44 | RRIRGRPPRLPRPRPRPYTNPRP | -0.313

Row | Sequence | shrunken log2 fold change
45 | RRIRGRPPRLPRPRPRPYVNPRP | 0.0862
46 | RRIRGRPPRLPRPRPRPYWQPRP | -0.369
47 | RRIRGRPPRLPRPRPRPYYHPRP | -0.204
48 | RRIRHRPPRLPRPRPRPACAPRP | 0.436
49 | RRIRHRPPRLPRPRPRPACQPRP | 0.0463
50 | RRIRHRPPRLPRPRPRPACRPRP | -0.141
51 | RRIRHRPPRLPRPRPRPADPPRP | 0.0438
52 | RRIRHRPPRLPRPRPRPADRPRP | -0.0209
53 | RRIRHRPPRLPRPRPRPAGNPRP | 0.023
54 | RRIRHRPPRLPRPRPRPAHKPRP | -0.0386
55 | RRIRHRPPRLPRPRPRPAIAPRP | 0.0527
56 | RRIRHRPPRLPRPRPRPALAPRP | 0.24
57 | RRIRHRPPRLPRPRPRPALPPRP | 0.0229
58 | RRIRHRPPRLPRPRPRPAMLPRP | -0.168
59 | RRIRHRPPRLPRPRPRPAMRPRP | 1.1
60 | RRIRHRPPRLPRPRPRPANEPRP | 0.0508
61 | RRIRHRPPRLPRPRPRPAQEPRP | 0.381
62 | RRIRHRPPRLPRPRPRPAQVPRP | -0.0333
63 | RRIRHRPPRLPRPRPRPAQWPRP | 0.112
64 | RRIRHRPPRLPRPRPRPARAPRP | 0.345
65 | RRIRHRPPRLPRPRPRPARVPRP | 0.502
66 | RRIRHRPPRLPRPRPRPASSPRP | 0.0164

Row | Sequence | shrunken log2 fold change
67 | RRIRHRPPRLPRPRPRPAVDPRP | 0.0722
68 | RRIRHRPPRLPRPRPRPCCRPRP | -0.276
69 | RRIRHRPPRLPRPRPRPCFIPRP | -0.385
70 | RRIRHRPPRLPRPRPRPCGPPRP | -0.084
71 | RRIRHRPPRLPRPRPRPCHQPRP | -0.601
72 | RRIRHRPPRLPRPRPRPCIPPRP | -0.809
73 | RRIRHRPPRLPRPRPRPCKGPRP | -0.0269
74 | RRIRHRPPRLPRPRPRPCKSPRP | 0.0139
75 | RRIRHRPPRLPRPRPRPCKVPRP | -0.0825
76 | RRIRHRPPRLPRPRPRPCKYPRP | 0.0259
77 | RRIRHRPPRLPRPRPRPCLAPRP | -0.0627
78 | RRIRHRPPRLPRPRPRPCLHPRP | -0.0114
79 | RRIRHRPPRLPRPRPRPCNWPRP | -0.0331
80 | RRIRHRPPRLPRPRPRPCPQPRP | -0.195
81 | RRIRHRPPRLPRPRPRPCQGPRP | -0.00822
82 | RRIRHRPPRLPRPRPRPCQNPRP | -0.0608
83 | RRIRHRPPRLPRPRPRPCRIPRP | -0.0589
84 | RRIRHRPPRLPRPRPRPCSMPRP | -0.0569
85 | RRIRHRPPRLPRPRPRPCSYPRP | -0.0203
86 | RRIRHRPPRLPRPRPRPCVCPRP | 0.0978
87 | RRIRHRPPRLPRPRPRPCWHPRP | -0.112
88 | RRIRHRPPRLPRPRPRPDACPRP | -0.0498

Row | Sequence | shrunken log2 fold change
89 | RRIRHRPPRLPRPRPRPDAMPRP | -0.00187
90 | RRIRHRPPRLPRPRPRPDCYPRP | -0.0716
91 | RRIRHRPPRLPRPRPRPDDKPRP | -0.359
92 | RRIRHRPPRLPRPRPRPDFNPRP | -0.607
93 | RRIRHRPPRLPRPRPRPDFQPRP | -0.00193
94 | RRIRHRPPRLPRPRPRPDFVPRP | -0.242
95 | RRIRHRPPRLPRPRPRPDHQPRP | 0.0561
96 | RRIRHRPPRLPRPRPRPDLDPRP | -0.0331
97 | RRIRHRPPRLPRPRPRPDLQPRP | -0.15
98 | RRIRHRPPRLPRPRPRPDMAPRP | -0.0459
99 | RRIRHRPPRLPRPRPRPDMEPRP | -0.336
100 | RRIRHRPPRLPRPRPRPDNAPRP | -0.34
101 | RRIRHRPPRLPRPRPRPDNGPRP | -0.00804
102 | RRIRHRPPRLPRPRPRPDNSPRP | -1.1
103 | RRIRHRPPRLPRPRPRPDNYPRP | -0.0274
104 | RRIRHRPPRLPRPRPRPDPRPRP | 0.0959
105 | RRIRHRPPRLPRPRPRPDQNPRP | -0.14
106 | RRIRHRPPRLPRPRPRPDSGPRP | -0.0385
107 | RRIRHRPPRLPRPRPRPDWEPRP | -0.00783
108 | RRIRHRPPRLPRPRPRPDWHPRP | 2.17
109 | RRIRHRPPRLPRPRPRPDWQPRP | 0.00196
